Results: publication PMC5703284 (Proceedings of the National Academy of Sciences of the …, 2017)

Columns and labels:
human ActRIIB-Fc protein = target: T1, human ActRIIB-Fc protein (human, UniProt Q13705)
T1 sequence: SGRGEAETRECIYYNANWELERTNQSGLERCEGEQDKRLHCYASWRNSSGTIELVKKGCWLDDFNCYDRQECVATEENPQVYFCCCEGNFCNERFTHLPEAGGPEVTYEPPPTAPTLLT

human ActRIIA-Fc protein = human ActRIIA-Fc protein (human, UniProt P27037)
Sequence of human ActRIIA-Fc protein (P27037 20-135): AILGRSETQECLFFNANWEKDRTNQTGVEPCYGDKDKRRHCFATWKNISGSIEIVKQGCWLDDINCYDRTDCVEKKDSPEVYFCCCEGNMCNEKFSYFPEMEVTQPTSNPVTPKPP

- Kd (human ActRIIB-Fc protein): 6.5 pM
- Kd (human ActRIIA-Fc protein): 5.3 pM
B1: activin A (ligand)
chain: GLECDGKVNICCKKQFFVSFKDIGWNDWIIAPSGYHANYCEGECPSHIAGTSGSSLSFHSTVINHYRMRGHSPFANLKSCCVPTKLRPMSMLYYDDGQNIIKKDIQNMIVEECGCS
